Key:
[1] = Nitric oxide release from diazeniumdiolated materials; format: physicochemical
Experimental: Nitric oxide release of the presently disclosed NO-releasing particles was measured according to the following general procedure. Referring now to FIG. 12, a predetermined volume of phosphate buffer solution (PBS) (pH 7.4, 37° C.) was disposed in a receptacle, e.g., a round-bottomed flask. The receptacle was sealed, leaving an inlet for nitrogen gas and an outlet for a mixture of nitrogen and nitric oxide. The outlet was in fluid communication with a chemiluminescence nitric oxide analyzer. An aliquot of a solution containing a diazeniumdiolated species was injected into the PBS buffer. The chemiluminescence nitric oxide analyzer measured the amount of NO that reacted with ozone (O3) to form excited NO2*, which emitted electromagnetic radiation (hv) as shown in Scheme 2. […] NO2*→NO2+hv Scheme 2. Measurement of NO by chemiluminescence.
NO release from a variety of NO-releasing materials was measured according to the procedure outlined in Example 3. The diazeniumdiolated fumed silica particles were prepared as described in Example 9, below, grafting the fumed silica surface to N-(6-aminohexyl)-3-aminopropyltrimethoxysilane, followed by diazeniumdiolation of the secondary amine with NO gas.

[2] = tested on: A2780 ovarian epithelial tumor cells; assay: MTT cell viability assay, A2780 cells; format: cell-based, human; conditions: small molecule NO donor; cell line not named in the sentence (b369 names OVCAR-3 for PYRRO/NO)
Experimental: To evaluate the tumoricidal potential of NO donor silica nanoparticles, the cytotoxicity of control and NO-releasing silica particles on immortalized normal (T29) and cancer (A2780 and OVCAR-3) human ovarian epithelial cells was tested. MTT cell viability assays were performed as described below. The 3-(4,5-dimethylthiazol-2-yl-)-2,5-diphenyltetrazoliumbromide (MTT) proliferation assay was employed to determine the relative sensitivities of OVCAR-3 cells to PYRRO/NO. Cells were seeded in 6 replicates at 1−5×10^3 cells/well in 96-well microtiter plates, incubated overnight, and exposed to concentrations of NO donor and control pyrrolidine solutions for 48 h. The NO-releasing medium was then removed and replaced by MTT solution, upon which the cells were incubated for an additional 4 h at 37° C. Following removal of the MTT, DMSO was added, and the absorption of the solution was measured at 560 nm using a microplate reader.
To investigate whether nanoparticle size affects cytotoxicity, two silica nanoparticles (75 mol % MAP3, balance TEOS) of different particle size (80 and 350 nm in diameter, hereafter referred to as s-MAP3 and L-MAP3, respectively) were synthesized. […] Cell viability was determined by incubating T29 and A2780 with non NO-releasing control MAP3 particle (80 nm), s-MAP3, or L-MAP3 (0.4 mg/mL) for 48 h. […]

Molecule | NO Released [1] | tv2 [1] | Cytotoxic NO concentration [2]
Proteins (Bovine serum albumin (BSA): diazeniumdiolated bovine serum albumin | 0.54 mmol NO/g | 7.2E4. min | –
[Na+].[O-]N=[N+]([O-])N1CCCC1 [PYRRO/NO] | – | – | 4.4 mM NO

— patent US8282967B2, “Nitric oxide-releasing particles for nitric oxide therapeutics and biomedical applications” (The University of North Carolina at Chapel Hill, priority 2005, dated 2012)
